# Laboratory results taken from the supplement of paper PMC10567573.
# B1: CHMP4C (parent)
# chain: SSKSRAAPSPQEALVRLRETEEML
# B2: SLC35F2 (parent)
# chain: FVAFALCMFCLYSFMPLVIKVTSA
# Variants of: B1
# Test: protein stability index of a GFP-peptide fusion (GPS, HEK-293T) (PSI 1-6); higher = more stable
# Settings: c terminus: a fixed tail appended
# 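Note: lentivirally expressed fusions sorted by FACS into six bins by GFP to DsRed ratio, PSI derived from sequencing read proportions per bin multiplied by bin number.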
row,Variant,protein stability index
1,M23Y,1.41
2,M23W,1.55
3,L24M,3.11
4,L24Q,5.69
5,L24H,4.37
6,L24Y,3.64
7,L24T,3.92
8,L24N,5.32
9,L24W,3.92
10,L24F,4.25
11,L24E,5.94
12,L24I,2.52
13,L24S,4.53
14,L24G,4.97
15,L24D,5.37
16,L24R,4.22

# Variants of: B2
# Test: as above
# Settings: c terminus: a fixed tail appended
row,Variant,protein stability index
1,C7M,3.58
2,C7S,3.35
3,C7P,1.95
4,C7I,2.35
5,C7T,2.6
6,C7L,2.99
7,C7V,3.59
8,C7Y,2.85
9,C7N,4.12
10,C7H,3.27
11,C7Q,3.11
12,C7F,2.43
13,C7K,2.46
14,C7A,2.45
15,C7D,3.08
16,C7E,2.19
17,C7R,3.23
18,C7W,2.19
19,V18N,3.17
20,V18D,3.27
21,V18M,2.51
22,V18P,3.36
23,V18Q,4.26
24,V18A,2.91
25,V18E,2.87

row,Variant,protein stability index
1,V18I,2.35
2,V18F,2.85
3,V18H,2.9
4,V18G,3.68
5,V18C,3.04
6,V18K,2.63
7,V18L,2.65
8,A3L,2.38
9,A3D,2.37
10,A3R,3.31
11,A3W,2.55
12,A3I,2.84
13,A3E,2.62
14,A3F,2.64
15,A3C,2.05
16,A3T,2.21
17,A3Y,3.12
18,A3N,2.43
19,A3S,2.81
20,A3V,3.02
21,A3P,1.98
22,A3M,2.65
23,A3K,2.42
24,A3H,2.44
25,F14T,2.91

row,Variant,protein stability index
1,F14G,3.38
2,F14P,2.46
3,F14M,2.52
4,F14A,2.78
5,F14Y,2.41
6,F14E,2.86
7,F14H,3.63
8,F14S,3.81
9,F14V,3.79
10,F14I,3.99
11,F14C,2.43
12,F14D,3.53
13,F14W,3.16
14,F14R,3.4
15,F14L,3.56
16,F14Q,2.31
17,F14N,2.27
18,F14K,2.77
19,V2E,2.27
20,V2I,4.37
21,V2G,3.29
22,V2L,3.45
23,V2P,3.21
24,V2C,2.5
25,V2F,2.7

row,Variant,protein stability index
1,V2R,2.37
2,V2K,2.97
3,V2Q,2.65
4,V2S,2.71
5,V2T,4.03
6,V2N,3.7
7,V2W,2.44
8,V2D,2.14
9,V2A,2.72
10,Y12G,3.85
11,Y12R,2.29
12,Y12K,2.74
13,Y12H,2.47
14,Y12I,2.31
15,Y12P,2.25
16,Y12E,3.32
17,Y12M,2.75
18,Y12A,3.98
19,Y12V,2.74
20,Y12N,3.2
21,Y12F,2.54
22,Y12S,3.08
23,Y12T,2.68
24,Y12W,2.76
25,Y12Q,3.48

row,Variant,protein stability index
1,Y12L,2.5
2,Y12C,2.32
3,Y12D,1.79
4,P16H,3.01
5,P16A,3.6
6,P16N,3.51
7,P16S,3.48
8,P16W,2.66
9,P16Y,4.47
10,P16G,2.85
11,P16D,2.99
12,P16I,2.99
13,P16K,2.06
14,P16Q,2.65
15,P16M,1.92
16,P16L,2.86
17,P16F,2.59
18,P16T,2.05
19,P16R,2.79
20,P16V,1.69
21,P16C,3.1
22,P16E,1.85
23,M15F,3.1
24,M15R,2.98
25,M15Y,3.23

row,Variant,protein stability index
1,M15W,2.1
2,M15G,2.42
3,M15V,2.71
4,M15T,2.83
5,M15Q,3.41
6,M15L,3.33
7,M15D,3.13
8,M15C,3.39
9,M15H,2.97
10,M15K,3.67
11,M15E,2.25
12,M15N,3.43
13,M15I,3.14
14,M15P,4.92
15,M15S,2.61
16,C10Q,3.47
17,C10L,2.43
18,C10V,3.48
19,C10A,2.18
20,C10R,3.21
21,C10E,3.49
22,C10I,2.27
23,C10D,3.05
24,C10M,2.88
25,C10T,2.52

row,Variant,protein stability index
1,C10W,2.35
2,C10F,3.07
3,C10P,2.35
4,C10K,2.52
5,C10G,2.58
6,C10H,2.75
7,C10N,2.8
8,C10Y,2.28
9,C10S,3.53
10,L6T,2.16
11,L6S,3.91
12,L6H,3.22
13,L6E,2.43
14,L6Y,3.21
15,L6P,2.79
16,L6K,2.38
17,L6A,2.8
18,L6Q,3.48
19,L6G,2.14
20,L6F,2.84
21,L6W,3.52
22,L6V,2.13
23,L6I,2.5
24,L6N,3.13
25,L6D,3.24

row,Variant,protein stability index
1,L6C,2.33
2,M8P,2.4
3,M8R,3.49
4,M8N,3.69
5,M8W,3.65
6,M8A,3.8
7,M8T,2.72
8,M8D,2.12
9,M8S,3.3
10,M8C,2.4
11,M8V,3.38
12,M8I,2.88
13,M8K,2.51
14,M8F,2.67
15,M8L,2.67
16,M8Y,3.31
17,M8Q,2.57
18,M8H,2.8
19,M8E,3.62
20,M8G,1.97
21,S13A,2.08
22,S13K,3.34
23,S13G,3.42
24,S13W,2.54
25,S13C,2.62

row,Variant,protein stability index
1,S13P,2.15
2,S13H,3.26
3,S13V,3.39
4,S13N,3.33
5,S13Y,2.33
6,S13R,3.03
7,S13E,3.17
8,S13F,2.8
9,S13I,3.95
10,S13D,4.24
11,S13Q,2.36
12,S13T,2.97
13,S13M,2.54
14,S13L,3.22
15,A5V,2.75
16,A5N,1.4
17,A5K,2.58
18,A5D,3.05
19,A5L,2.47
20,A5H,2.52
21,A5W,3.11
22,A5R,2.84
23,A5P,2.62
24,A5E,2.48
25,A5M,2.38

row,Variant,protein stability index
1,A5C,2.67
2,A5I,3.68
3,A5F,1.59
4,A5Y,2.58
5,A5S,3.44
6,L11Y,2.67
7,L11Q,3.66
8,L11P,1.84
9,L11V,3
10,L11H,2.99
11,L11N,3.45
12,L11S,4.04
13,L11A,3.07
14,L11G,2.39
15,L11T,2.43
16,L11K,3.17
17,L11W,2.44
18,L11I,3.19
19,L11C,3.54
20,L11E,4.11
21,L11R,2.85
22,L11F,2.21
23,L11D,3.52
24,F9M,3.23
25,F9D,3.1

row,Variant,protein stability index
1,F9G,1.76
2,F9R,3.23
3,F9K,3.39
4,F9A,2.62
5,F9C,2.94
6,F9E,3.49
7,F9N,2.31
8,F9L,2.07
9,F9S,2.61
10,F9Q,2.59
11,F9V,2.56
12,F9W,2.68
13,F9Y,2.79
14,F9P,2.44
15,F4A,2.54
16,F4W,3.22
17,F4V,3.37
18,F4M,2.64
19,F4R,3.58
20,F4Y,2.33
21,F4N,4.39
22,F4D,4.88
23,F4P,4.46
24,F4I,2.65
25,F4H,2.26

row,Variant,protein stability index
1,F4K,2.01
2,F4G,2.87
3,F4T,3.63
4,F4L,4.33
5,F4Q,2.23
6,F4E,3.18
7,F4C,2.52
8,F1W,2.65
9,F1Y,2.99
10,F1H,3.02
11,F1Q,3.03
12,F1N,3.06
13,F1L,3.61
14,F1E,3.64
15,F1T,2.5
16,F1K,2.5
17,F1R,4.03
18,F1M,2.59
19,F1D,2.71
20,F1P,2.61
21,F1G,3.04
22,F1I,3.76
23,F1C,2.46
24,F1V,2.51
25,F1A,2.36

row,Variant,protein stability index
1,L17N,1.58
2,L17Y,3.6
3,L17E,2.38
4,L17K,4.14
5,L17A,2.46
6,L17D,2.8
7,L17Q,3.99
8,L17C,1.91
9,L17F,2.35
10,L17G,2.43
11,L17T,2.34
12,L17W,2.18
13,L17M,3.65
14,L17P,2.71
15,L17R,2.36
16,L17V,3.13
17,L17H,2.77
18,L17I,2.03
